Data taken from patent US12630618 (GEORGIA TECH RESEARCH, dated 2026).

Target: T1, human myocilin OLF (hMyoc-OLF), cleaved from its fusion tag (human, UniProt Q99972 244-503, limits assumed)
T1 construct: In Western blots the protein is denatured; also called hOLF; cleaved human myocilin OLF
T1 sequence: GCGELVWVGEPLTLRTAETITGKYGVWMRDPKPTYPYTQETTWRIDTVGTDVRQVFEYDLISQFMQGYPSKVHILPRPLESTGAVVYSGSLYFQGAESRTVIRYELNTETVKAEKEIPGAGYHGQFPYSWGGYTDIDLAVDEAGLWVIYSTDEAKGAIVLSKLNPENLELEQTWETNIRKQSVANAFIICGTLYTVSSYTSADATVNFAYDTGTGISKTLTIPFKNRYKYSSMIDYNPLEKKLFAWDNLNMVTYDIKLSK
Assay: Western blot, denatured hMyoc-OLF, IgG

B1: Monoclonal Antibody OLF2 (antibody, V domains shown)
VH: DVKLVESGGGLVKPGGSLKLSCAASGFTFSSYAMSWVRQTPDKRLEWVATISSGGSYTYYPDSVKGRFTISRDNAKNTLYLQMSSLKSEDTAMYYCARLGGGIFAYWGQGTLVTVSA
VL: DVLMTQTPLSLPVSLGDQASISCRSSQSIVHSNGNTYLEWYLQKPGQSPKLLIYKVSNRFSGVPDRFSGSGSGTDFTLKISRVEAEDLGVYYCFQGSHVPLTFGAGTKLEIKR
notes: also called anti-OLF2
binding result: binds
